This experiment has as its target small GTPase Rac1 (UniProt P63000 1-189). Briefly: immunoprecipitation with Tiam-1 antiserum from MCF-7 line lysates, blot with anti-Rac1. As to the method:
In brief, 70% confluent cultures of 25 mL flask were detached, pelleted and following 2 times washing with PBS. The pellet were lysed in RIPA buffer then centrifuged and the supernatant was pre-cleared by addition of 5 μL of protein A/G-sepharose beads slurry (Pierce) for 2 hours, then the supernatant was incubated with the antibody of interest for 24 hours. 10 μL of protein A/G slurry was added for 2 hours, collected by pulse centrifugation, washed 3 times with lysis buffer, resuspended in 2×SDS loading buffer subjected to SDS-PAGE, followed by immunoblotting with the appropriate antibodies.

B1: Tiam-1, Rac1-specific guanine nucleotide exchange factor (RacGEF) (enzyme)
chain: GNAESQHVEHEFYGEKHASLGRKHTSRSLRLSHKTRRTRHASSGKVIHRNSEVSTRSSSTPSIPQSLAENGLEPFSQDGTLEDFGSPIWVDRVDMGLRPVSYTDSSVTPSVDSSIVLTAASVQSMPDTEESRLYGDDATYLAEGGRRQHSYTSNGPTFMETASFKKKRSKSADIWREDSLEFSLSDLSQEHLTSNEEILGSAEEKDCEEARGMETRASPRQLSTCQRANSLGDLYAQKNSGVTANGGPGSKFAGYCRNLVSDIPNLANHKMPPAAAEETPPYSNYNTLPCRKSHCLSEGATNPQISHSNSMQGRRAKTTQDVNAGEGSEFADSGIEGATTDTDLLSRRSNATNSSYSPTTGRAFVGSDSGSSSTGDAARQGVYENFRRELEMSTTNSESLEEAGSAHSDEQSSGTLSSPGQSDILLTAAQGTVRKAGALAVKNFLVHKKNKKVESATRRKWKHYWVSLKGCTLFFYESDGRSGIDHNSIPKHAVWVENSIVQAVPEHPKKDFVFCLSNSLGDAFLFQTTSQTELENWITAIHSACATAVARHHHKEDTLRLLKSEIKKLEQKIDMDEKMKKMGEMQLSSVTDSKKKKTILDQIFVWEQNLEQFQMDLFRFRCYLASLQGGELPNPKRLLAFASRPTKVAMGRLGIFSVSSFHALVAARTGETGVRRRTQAMSRSASKRRSRFSSLWGLDTTSKKKQGRPSINQVFGEGTEAVKKSLEGIFDDIVPDGKREKEVVLPNVHQHNPDCDIWVHEYFTPSWFCLPNNQPALTVVRPGDTARDTLELICKTHQLDHSAHYLRLKFLIENKMQLYVPQPEEDIYELLYKEIEICPKVTQSIHIEKSDTAADTYGFSLSSVEEDGIRRLYVNSVKETGLASKKGLKAGDEILEINNRAADALNSSMLKDFLSQPSLGLLVRTYPELEEGVELLESPPHRVDGPADLGESPLAFLTSNPGHSLCSEQGSSAETAPEETEGPDLESSDETDHSSKSTEQVAAFCRSLHEMNPSDQSPSPQDSTGPQLATMRQLSDADKLRKVICELLETERTYVKDLNCLMERYLKPLQKETFLTQDELDVLFGNLTEMVEFQVEFLKTLEDGVRLVPDLEKLEKVDQFKKVLFSLGGSFLYYADRFKLYSAFCASHTKVPKVLVKAKTDTAFKAFLDAQNPKQQHSSTLESYLIKPIQRILKYPLLLRELFALTDAESEEHYHLDVAIKTMNKVASHINEMQKIHEEFGAVFDQLIAEQTGEKKEVADLSMGDLLLHTTVIWLNPPASLGKWKKEPELAAFVFKTAVVLVYKDGSKQKKKLVGSHRLSIYEDWDPFRFRHMIPTEALQVRALASADAEANAVCEIVHVKSESEGRPERVFHLCCSSPESRKDFLKAVHSILRDKHRRQLLKTESLPSSQQYVPFGGKRLCALKGARPAMSRAVSAPSKSLGRRRRRLARNRFTIDSDAVSASSPEKESQQPPGGGDTDRWVEEQFDLAQYEEQDDIKETDILSDDDEFCESVKGASVDRDLQERLQATSISQRERGRKTLDSHASRMAQLKKQAALSGINGGLESASEEVIWVRREDFAPSRKLNTEI
notes: Endogenous protein in MCF-7 cell lysate
For the molecule B1, the binding result is “binds”.
